# From patent publication US20190225689A1 (Janssen / Centocor, published 2019)
# B1: JNJ-63723283 (cetrelimab) (antibody, human IgG4 S228P, kappa, V domains shown)
# VH: QVQLVQSGAEVKKPGSSVKVSCKASGGTFSSYAISWVRQAPGQGLEWMGGIIPIFDTANYAQKFQGRVTITADESTSTAYMELSSLRSEDTAVYYCARPGLAAAYDTGSLDYWGQGTLVTVSS
# VL: EIVLTQSPATLSLSPGERATLSCRASQSVRSYLAWYQQKPGQAPRLLIYDASNRATGIPARFSGSGSGTDFTLTISSLEPEDFAVYYCQQRNYWPLTFGQGTKVEIKR
# notes: IgG4/kappa antibody; also called study drug
# Biological target: T1, human programmed cell death protein 1, PD-1 (human, UniProt Q15116 25-288)
# T1 construct: In the assay it was the endogenous PD-1 on circulating CD3+ T cells of treated patients; also called CD279; PDCD1
# T1 sequence (Q15116 25-288 limits assumed): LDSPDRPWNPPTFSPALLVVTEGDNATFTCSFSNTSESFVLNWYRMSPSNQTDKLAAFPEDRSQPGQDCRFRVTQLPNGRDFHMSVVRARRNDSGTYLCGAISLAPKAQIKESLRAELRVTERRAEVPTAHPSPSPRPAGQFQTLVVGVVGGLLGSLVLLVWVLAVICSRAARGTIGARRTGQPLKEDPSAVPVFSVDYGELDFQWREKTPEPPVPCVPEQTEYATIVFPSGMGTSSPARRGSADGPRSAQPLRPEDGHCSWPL
# Assay: PD-1 receptor occupancy by flow cytometry on circulating CD3+ T cells of dosed patients
binder,measurement,value
B1,binding result,binds
